Laboratory results taken from patent US12024547B2, “KLK5 inhibitory peptide” (DAIICHI SANKYO COMPANY, LIMITED, priority 2018, dated 2024).

T1: KLK5 (Homo sapiens, UniProt Q9Y337)
T1 construct: “Active KLK5” means active KLK5, which is composed of a domain having a protease activity; His tag (C); FLAG (Gly-DYKDDDDK before the His tag); made in house; host or cells: Expi293F cells
T1 sequence (Q9Y337 67-293): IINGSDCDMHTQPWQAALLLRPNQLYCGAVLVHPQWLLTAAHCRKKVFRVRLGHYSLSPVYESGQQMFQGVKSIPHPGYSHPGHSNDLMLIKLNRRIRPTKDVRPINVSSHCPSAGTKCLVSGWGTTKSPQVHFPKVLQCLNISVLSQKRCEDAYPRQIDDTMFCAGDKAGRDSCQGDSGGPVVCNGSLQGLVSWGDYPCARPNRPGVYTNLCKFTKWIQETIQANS

T2: human KLK14 (Homo sapiens, UniProt Q9P0G3)
T2 construct: His tag (C); FLAG (Gly-DYKDDDDK before the His tag); made in house; host or cells: Expi293F cells
T2 sequence (Q9P0G3 25-251): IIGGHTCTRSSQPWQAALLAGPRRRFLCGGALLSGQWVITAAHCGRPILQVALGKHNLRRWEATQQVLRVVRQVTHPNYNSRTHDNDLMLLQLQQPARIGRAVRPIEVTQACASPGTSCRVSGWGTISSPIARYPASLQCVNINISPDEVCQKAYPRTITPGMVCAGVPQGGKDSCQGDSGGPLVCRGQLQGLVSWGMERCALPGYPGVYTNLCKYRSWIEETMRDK


Target: T1, KLK5
Assay: KLK5 binding activity of KLK5 inhibitory peptide, surface plasmon resonance (biotinylated KLK5 captured, peptide as analyte)
Conditions: BIAcore T 200, single cycle kinetics
Method: In order to measure the binding affinity of the KLK5 inhibitory peptides, surface plasmon resonance analysis was conducted using BIAcore T 200 (GE healthcare). A complementary strand of DNA of a streptavidin conjugate was captured by hybridization on Sensor Chip CAP (GE healthcare) on which single-stranded DNA immobilized. Next, KLK5 biotinylated using EZ-Link NHS-PEG4-Biotin (Thermo Fisher Scientific) was captured at a flow rate of 10 μL/min to immobilize about 10 RU. Thereafter, the KLK5 inhibitory peptide, serially diluted 2-fold with HBS-EP (0.625 to 10 nM), was added thereto as an analyte at a flow rate of 30 μL/min. In the BIAcore T 200 Evaluation software (version 2.0), kon and koff were calculated by analysis using Single cycle kinetics in a simple one-to-one Langmuir binding model. The dissociation constant KD was calculated as a ratio of koff/kon. Further, multiple KLK5 inhibitory peptides were measured by regenerating Sensor Chip CAP using a Regeneration buffer attached to a Biotin CAPture Kit (GE healthcare) and repeatedly capturing biotinylated KLK5.

Row | Koff [s⁻¹] | Molecule
1 | 0.0012 | K51005: KLK5/KLK7 inhibitory peptide (SPINK2 mutant), amino acid sequence SEQ ID NO: 24 (protein) GPQFGLFSKYRTPNCMQHARQGCHYDYDPVCGSDMSTYANECTLCMKIREGGHNIKIIRNGPCGG
2 | 1e-06 | K51069: KLK5/KLK14 inhibitory peptide (SPINK2 mutant), amino acid sequence SEQ ID NO: 30 (protein) GPQFGLFSKYRTPNCSQVVETYCNRDYDPVCGSDMSTYANECTLCMKIREGGHNIKIIRNGPCGG
3 | 2.9e-06 | K50062: KLK5 inhibitory peptide (SPINK2 mutant), amino acid sequence SEQ ID NO: 16 (protein) GPQFGLFSKYRTPNCQQYRELGCGRQYDPVCGSDMSTYANECTLCMKIREGGHNIKIIRNGPCGG
4 | 2.2e-05 | K51072: KLK5 inhibitory peptide (SPINK2 mutant), amino acid sequence SEQ ID NO: 10 (protein) GPQFGLFSKYRTPNCQEDMTEYCARDFDPVCGSDMSTYANECTLCMKIREGGHNIKIIRNGPCGG
5 | 5.7e-05 | K51090: KLK5 inhibitory peptide (SPINK2 mutant), amino acid sequence SEQ ID NO: 18 (protein) GPQFGLFSKYRTPNCDEIGKYGCGRSYDPVCGSDMSTYANECTLCMKIREGGHNIKIIRNGPCGG
6 | 1.8e-05 | K50055: KLK5 inhibitory peptide (SPINK2 mutant), amino acid sequence SEQ ID NO: 8 (protein) GPQFGLFSKYRTPNCANTMKQDCTREYDPVCGSDMSTYANECTLCMKIREGGHNIKIIRNGPCGG
7 | 3.5e-05 | K51034: KLK5 inhibitory peptide (SPINK2 mutant), amino acid sequence SEQ ID NO: 14 (protein) GPQFGLFSKYRTPNCGRYTTGGCNKEYEPVCGSDMSTYANECTLCMKIREGGHNIKIIRNGPCGG
8 | 5e-05 | K50031: KLK5/KLK7 inhibitory peptide (SPINK2 mutant), amino acid sequence SEQ ID NO: 26 (protein) GPQFGLFSKYRTPNCGEYKGRGCYYHYDPVCGSDMSTYANECTLCMKIREGGHNIKIIRNGPCGG
9 | 0.0015 | K51057: KLK5/KLK7 inhibitory peptide (SPINK2 mutant), amino acid sequence SEQ ID NO: 28 (protein) GPQFGLFSKYRTPNCGTMQGSGCTYHYEPVCGSDMSTYANECTLCMKIREGGHNIKIIRNGPCGG
10 | 1e-06 | K50015: KLK5/KLK14 inhibitory peptide (SPINK2 mutant), amino acid sequence SEQ ID NO: 32 (protein) GPQFGLFSKYRTPNCYDTTTHYCSREYDPVCGSDMSTYANECTLCMKIREGGHNIKIIRNGPCGG
11 | 2e-05 | K51028: KLK5/KLK7 inhibitory peptide (SPINK2 mutant), amino acid sequence SEQ ID NO: 22 (protein) GPQFGLFSKYRTPNCYQYRSKGCTHEYDPVCGSDMSTYANECTLCMKIREGGHNIKIIRNGPCGG
12 | 1.8e-05 | K50098: KLK5 inhibitory peptide (SPINK2 mutant), amino acid sequence SEQ ID NO: 20 (protein) GPQFGLFSKYRTPNCTSQTLGSCSREYDPVCGSDMSTYANECTLCMKIREGGHNIKIIRNGPCGG
13 | 0.00029 | K50016: KLK5 inhibitory peptide (SPINK2 mutant), amino acid sequence SEQ ID NO: 12 (protein) GPQFGLFSKYRTPNCSQWQYSSCDRVYDPVCGSDMSTYANECTLCMKIREGGHNIKIIRNGPCGG
14 | 0.00027 | K50032: KLK5 inhibitory peptide (SPINK2 mutant), amino acid sequence SEQ ID NO: 6 (protein) GPQFGLFSKYRTPNCLNWTDHQCERDYDPVCGSDMSTYANECTLCMKIREGGHNIKIIRNGPCGG

Target: T1, KLK5
Assay: X-ray crystal structure analysis of KLK5/KLK5 inhibitory peptide complex
Conditions: resolution 1.8 Å
Method: According to the methods described in (1-2) and (2-2), KLK5 inhibitory peptides K51034 and KLK5 having the amino acid sequences shown by the SEQ ID numbers were prepared. After mixing the two under conditions of 50 mM Tris-HCl, 150 mM NaCl, and pH 8.0, a complex was isolated and purified by gel filtration chromatography (Superdex 200 10/300 GL).
The complex solution prepared in (4-1) was concentrated to 12 mg/mL, thereafter mixed with a reservoir solution (0.2 M Magnesium Chloride hexahydrate, 20% PEG3350) at a ratio of 1:1, and crystallized by a vapor diffusion method. The obtained cubic single crystal was immersed in a reservoir solution containing 20% glycerol and thereafter frozen in liquid nitrogen. The frozen crystals were irradiated with X-rays in a cryo-stream to obtain a diffraction image (Hypixel 6000HE/MicroMax007). Scaling data with a maximum resolution of 1.7 Å was obtained by analysis using CrysAlisPro. The phase was determined by the molecular replacement method using KLK5 alone (PDB ID: 2PSX) and SPINK2 alone (PDB ID: 2JXD) as templates. After structural refinement, complex crystals of KLK5/the peptide K51034 were determined at a resolution of 1.8 Å. One molecule each of KLK5 and SPINK2 was contained in a unit cell. […]

Row | Molecule | binding site on KLK5 in complex crystal
15 | K51034: KLK5 inhibitory peptide (SPINK2 mutant), amino acid sequence SEQ ID NO: 14 (protein) GPQFGLFSKYRTPNCGRYTTGGCNKEYEPVCGSDMSTYANECTLCMKIREGGHNIKIIRNGPCGG | bound to a region containing the KLK5 enzyme's active site

Target: T2, human KLK14
Assay: Human KLK14 inhibitory activity, peptide substrate degradation
Format: biochemical
Conditions: KLK5 inhibitory peptide; hKLK14 0.2 μg/mL, substrate 100 μM
Method: The substrate peptide was dissolved in DMSO to 10 mM and diluted with an assay buffer (50 mM Tris-HCl, 150 mM NaCl, pH 8.0) for use. 25 μL each of human/mouse KLK5, human/mouse KLK7, or human/mouse KLK14 and the inhibitory peptide diluted with the assay buffer were mixed, followed by a reaction at 37° C. for 20 minutes. Thereafter, 50 μL of a substrate diluted with the assay buffer was added thereto, and the fluorescence signal was measured using Enspire (PerkinElmer). The combinations of the enzyme and the substrate used were as follows.
Evaluation of Human KLK14 inhibitory activity: hKLK14 with a final concentration of 0.2 μg/mL, a substrate peptide Boc-Val-Pro-Arg-AMC with a final concentration of 100 μM (R&D Systems, Inc.), and a fluorescence signal with excitation at 380 nm/emission at 460 nm
The average value of three independent experiments was used to calculate the IC50 value.
According to the method described in Example 3-1, the inhibitory activities of each KLK5 inhibitory peptide Fc fusion against human/mouse KLK5, human/mouse KLK7, and human/mouse KLK14 were evaluated. […] The average value of three independent experiments was used to calculate the IC50 value.

Row | IC50 [nM] | Molecule
16 | > 1000 | K51005: KLK5/KLK7 inhibitory peptide (SPINK2 mutant), amino acid sequence SEQ ID NO: 24 (protein) GPQFGLFSKYRTPNCMQHARQGCHYDYDPVCGSDMSTYANECTLCMKIREGGHNIKIIRNGPCGG
